Experimental findings from patent publication US20110143428A1 (Genentech, published 2011) are described below.

Assay [1] concerns the target T1, biotinylated human VEGF-C (human, UniProt P49767 112-227, limits assumed, biotin conjugated (site not stated)).
T1 construct: Panning used the matured form from R&D Systems; also called biotin conjugated VEGF-C; biotinylated VEGF-C
T1 sequence: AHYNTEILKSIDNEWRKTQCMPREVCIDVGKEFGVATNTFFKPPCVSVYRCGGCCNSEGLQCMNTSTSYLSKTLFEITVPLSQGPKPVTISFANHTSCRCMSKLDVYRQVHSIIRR
Description: receptor blocking ELISA: fixed biotin-VEGF-C incubated 2 h with serial dilutions of IgG, unbound VEGF-C captured on immobilized VEGFR3-Fc, streptavidin-HRP, OD450; blocked interaction VEGF-C/VEGFR3. The value stands in brackets after the curve's name in the legend box; the quantity is not named on the sheet, the value agrees with the midpoint of the curve. On the technique in general: An ELISA detects its analyte on a solid surface through an enzyme-linked reagent.

The target of assay [2] is T2, mature VEGF-C (R&D Systems) (human, UniProt P49767 103-227).
T2 construct: Bought from R&D Systems; also called human VEGF-C matured form (R&D systems)
T2 sequence: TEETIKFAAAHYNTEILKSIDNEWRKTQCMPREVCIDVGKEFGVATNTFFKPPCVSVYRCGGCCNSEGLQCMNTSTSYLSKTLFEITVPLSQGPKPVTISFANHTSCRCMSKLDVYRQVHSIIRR
Description: SPR, Biacore (Fab), VC4.5 Fab protein; set-up for the Fab not described (paragraph 557 describes captured IgG).

Assay [3] deals with T3, VEGF-C C137S.
T3 construct: also called hVEGF-C C137S; human VEGF-C C137S
T3 VEGF-C: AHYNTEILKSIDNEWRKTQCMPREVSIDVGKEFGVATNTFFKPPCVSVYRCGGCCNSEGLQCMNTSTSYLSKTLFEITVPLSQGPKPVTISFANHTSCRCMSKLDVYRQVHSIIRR
The experiment in a line: competition ELISA: three-fold serial dilutions of VC4.5 IgG incubated 2 h on hVEGF-C C137S coated plate (5 ug/ml), then VC4.5 phage for 15 min, anti-M13-HRP, OD450 in %; competitor: VC4.5 phage.

Assay [4] has as its target T3, VEGF-C C137S. Description: SPR, Biacore (IgG1): human IgG captured on CM5 chip, VEGF-C injected, 1:1 Langmuir fit. On the technique in general: Surface plasmon resonance follows binding to a sensor surface in real time, without labels.
Assay [5] deals with T2, mature VEGF-C (R&D Systems). The description is as above.
In another assay the target is T4, hVEGF-C (human, UniProt P49767).
T4 construct: unlabelled; also called human VEGF-C
T4 sequence (VEGF-C, looked up): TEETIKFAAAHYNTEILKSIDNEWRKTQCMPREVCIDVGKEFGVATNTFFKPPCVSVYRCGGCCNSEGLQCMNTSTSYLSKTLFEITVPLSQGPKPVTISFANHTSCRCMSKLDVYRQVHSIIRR
The experiment in a line: phage competition ELISA: phage-displayed clone VC4.5 incubated with increasing soluble hVEGF-C, unbound phage captured on hVEGF-C coated plate, anti-M13-HRP, OD450.

Assay [6] has as its target T3, VEGF-C C137S. The experiment in a line: phage competition ELISA as in paragraph 556 with human VEGF-C C137S as antigen: phage-displayed clone VC4.5, soluble antigen varied, anti-M13-HRP, OD450.

B1: anti-VEGF-C antibody mVC4.5 (mIgG2a) (antibody, V domains shown)
VH: EVQLVESGGGLVQPGGSLRLSCAASGFTFTDNWIHWVRQAPGKGLEWVAVISPYSGATYYADSVKGRFTISADTSKNTAYLQMNSLRAEDTAVYYCARDADYKYAFWAFDYWGQGTLVTVSS
VL: DIQMTQSPSSLSASVGDRVTITCRASQDVSTAVAWYQQKPGKAPKLLIYSASFLYSGVPSRFSGSGSGTDFTLTISSLQPEDFATYYCQQSYTTPPTFGQGTKVEIKR
notes: VC4.5 variable domains on a murine IgG2a backbone; also called VC4.5 murine IgG2a form; murine backbone anti-VEGF-C antibody
For the molecule B1, 0.74 nM corresponded to half-maximal inhibition in assay [1] (IC50).

B2: VC4.5Fab (Fab, V domains shown)
VH: EVQLVESGGGLVQPGGSLRLSCAASGFTFTDNWIHWVRQAPGKGLEWVAVISPYSGATYYADSVKGRFTISADTSKNTAYLQMNSLRAEDTAVYYCARDADYKYAFWAFDYWGQGTLVTVSS
VL: DIQMTQSPSSLSASVGDRVTITCRASQDVSTAVAWYQQKPGKAPKLLIYSASFLYSGVPSRFSGSGSGTDFTLTISSLQPEDFATYYCQQSYTTPPTFGQGTKVEIKR
B2 gave a Kd in assay [2] of 27.5 nM.

B3: anti-VEGF-C antibody hVC4.5 (hIgG1) (antibody, V domains shown)
VH: EVQLVESGGGLVQPGGSLRLSCAASGFTFTDNWIHWVRQAPGKGLEWVAVISPYSGATYYADSVKGRFTISADTSKNTAYLQMNSLRAEDTAVYYCARDADYKYAFWAFDYWGQGTLVTVSS
VL: DIQMTQSPSSLSASVGDRVTITCRASQDVSTAVAWYQQKPGKAPKLLIYSASFLYSGVPSRFSGSGSGTDFTLTISSLQPEDFATYYCQQSYTTPPTFGQGTKVEIKR
notes: Tested as human IgG1; also called VC4.5 human IgG1 form; human backbone anti-VEGF-C antibody
For the molecule B3, in the assay with VEGF-C C137S [3], the “IC50 (read off the curve)” value was approximately 7 nM. Further, the Kd came out at 1.1 nM with VEGF-C C137S [4] and 140 nM in assay [5]. Besides, the IC50 was 1.7 nM with hVEGF-C, 0.54 nM in assay [1] and 5.4 nM with VEGF-C C137S [6].

What is called IC50 is the midpoint of a concentration-inhibition curve. Higher therefore signals lower potency. What is called Kd is a measure of binding affinity in units of concentration. A lower Kd goes with higher affinity.
